This note sets out measurements from IntAct's records for PubMed 31515488.

The labels stand for the following.
B1: Keratin, type II cytoskeletal 6A (Homo sapiens), P02538 (parent)
chain: MASTSTTIRSHSSSRRGFSANSARLPGVSRSGFSSVSVSRSRGSGGLGGACGGAGFGSRSLYGLGGSKRISIGGGSCAISGGYGSRAGGSYGFGGAGSGFGFGGGAGIGFGLGGGAGLAGGFGGPGFPVCPPGGIQEVTVNQSLLTPLNLQIDPTIQRVRAEEREQIKTLNNKFASFIDKVRFLEQQNKVLETKWTLLQEQGTKTVRQNLEPLFEQYINNLRRQLDSIVGERGRLDSELRGMQDLVEDFKNKYEDEINKRTAAENEFVTLKKDVDAAYMNKVELQAKADTLTDEINFLRALYDAELSQMQTHISDTSVVLSMDNNRNLDLDSIIAEVKAQYEEIAQRSRAEAESWYQTKYEELQVTAGRHGDDLRNTKQEIAEINRMIQRLRSEIDHVKKQCANLQAAIADAEQRGEMALKDAKNKLEGLEDALQKAKQDLARLLKEYQELMNVKLALDVEIATYRKLLEGEECRLNGEGVGQVNISVVQSTVSSGYGGASGVGSGLGLGGGSSYSYGSGLGVGGGFSSSSGRAIGGGLSSVGGGSSTIKYTTTSSSSRKSYKH
partner: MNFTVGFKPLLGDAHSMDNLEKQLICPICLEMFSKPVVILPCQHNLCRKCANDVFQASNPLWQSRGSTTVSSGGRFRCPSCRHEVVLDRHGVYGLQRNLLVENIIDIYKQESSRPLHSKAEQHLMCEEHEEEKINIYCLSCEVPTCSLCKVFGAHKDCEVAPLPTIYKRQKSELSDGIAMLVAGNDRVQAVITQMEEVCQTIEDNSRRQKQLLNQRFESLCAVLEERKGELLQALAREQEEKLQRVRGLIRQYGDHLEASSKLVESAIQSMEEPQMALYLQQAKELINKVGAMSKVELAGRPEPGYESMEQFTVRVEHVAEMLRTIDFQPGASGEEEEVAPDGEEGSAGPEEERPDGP
B2: Ubiquitin thioesterase OTUB2 (Homo sapiens), Q96DC9 (parent)
chain: MSETSFNLISEKCDILSILRDHPENRIYRRKIEELSKRFTAIRKTKGDGNCFYRALGYSYLESLLGKSREIFKFKERVLQTPNDLLAAGFEEHKFRNFFNAFYSVVELVEKDGSVSSLLKVFNDQSASDHIVQFLRLLTSAFIRNRADFFRHFIDEEMDIKDFCTHEVEPMATECDHIQITALSQALSIALQVEYVDEMDTALNHHVFPEAATPSVYLLYKTSHYNILYAADKH
partner: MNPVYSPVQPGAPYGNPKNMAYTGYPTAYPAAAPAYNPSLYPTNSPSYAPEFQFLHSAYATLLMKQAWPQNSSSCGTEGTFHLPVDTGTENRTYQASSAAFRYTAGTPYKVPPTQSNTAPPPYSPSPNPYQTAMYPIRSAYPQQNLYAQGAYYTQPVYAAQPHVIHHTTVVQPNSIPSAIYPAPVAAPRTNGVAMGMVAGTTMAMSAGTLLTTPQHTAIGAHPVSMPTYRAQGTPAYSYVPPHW
B3: Proteasome subunit beta type-1 (Homo sapiens), P20618 (parent)
chain: MLSSTAMYSAPGRDLGMEPHRAAGPLQLRFSPYVFNGGTILAIAGEDFAIVASDTRLSEGFSIHTRDSPKCYKLTDKTVIGCSGFHGDCLTLTKIIEARLKMYKHSNNKAMTTGAIAAMLSTILYSRRFFPYYVYNIIGGLDEEGKGAVYSFDPVGSYQRDSFKAGGSASAMLQPLLDNQVGFKNMQNVEHVPLSLDRAMRLVKDVFISAAERDVYTGDALRICIVTKEGIREETVSLRKD
partner: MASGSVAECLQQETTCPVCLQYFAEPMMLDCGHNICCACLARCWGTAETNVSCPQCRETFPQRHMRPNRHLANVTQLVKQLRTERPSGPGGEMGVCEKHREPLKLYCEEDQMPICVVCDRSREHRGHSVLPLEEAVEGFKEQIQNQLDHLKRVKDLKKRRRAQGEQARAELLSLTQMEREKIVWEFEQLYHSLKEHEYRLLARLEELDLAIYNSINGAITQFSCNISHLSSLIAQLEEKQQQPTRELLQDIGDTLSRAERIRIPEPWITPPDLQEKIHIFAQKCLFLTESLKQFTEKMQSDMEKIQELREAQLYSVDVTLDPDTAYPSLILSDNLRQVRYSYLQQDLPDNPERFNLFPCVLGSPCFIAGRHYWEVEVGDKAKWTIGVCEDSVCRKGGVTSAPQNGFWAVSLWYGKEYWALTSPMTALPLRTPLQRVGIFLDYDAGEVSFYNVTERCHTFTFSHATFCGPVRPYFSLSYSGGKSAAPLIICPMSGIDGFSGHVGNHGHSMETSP
B4: Zinc finger protein 581 (Homo sapiens), Q9P0T4 (parent)
chain: MLVLPSPCPQPLAFSSVETMEGPPRRTCRSPEPGPSSSIGSPQASSPPRPNHYLLIDTQGVPYTVLVDEESQREPGASGAPGQKKCYSCPVCSRVFEYMSYLQRHSITHSEVKPFECDICGKAFKRASHLARHHSIHLAGGGRPHGCPLCPRRFRDAGELAQHSRVHSGERPFQCPHCPRRFMEQNTLQKHTRWKHP
partner: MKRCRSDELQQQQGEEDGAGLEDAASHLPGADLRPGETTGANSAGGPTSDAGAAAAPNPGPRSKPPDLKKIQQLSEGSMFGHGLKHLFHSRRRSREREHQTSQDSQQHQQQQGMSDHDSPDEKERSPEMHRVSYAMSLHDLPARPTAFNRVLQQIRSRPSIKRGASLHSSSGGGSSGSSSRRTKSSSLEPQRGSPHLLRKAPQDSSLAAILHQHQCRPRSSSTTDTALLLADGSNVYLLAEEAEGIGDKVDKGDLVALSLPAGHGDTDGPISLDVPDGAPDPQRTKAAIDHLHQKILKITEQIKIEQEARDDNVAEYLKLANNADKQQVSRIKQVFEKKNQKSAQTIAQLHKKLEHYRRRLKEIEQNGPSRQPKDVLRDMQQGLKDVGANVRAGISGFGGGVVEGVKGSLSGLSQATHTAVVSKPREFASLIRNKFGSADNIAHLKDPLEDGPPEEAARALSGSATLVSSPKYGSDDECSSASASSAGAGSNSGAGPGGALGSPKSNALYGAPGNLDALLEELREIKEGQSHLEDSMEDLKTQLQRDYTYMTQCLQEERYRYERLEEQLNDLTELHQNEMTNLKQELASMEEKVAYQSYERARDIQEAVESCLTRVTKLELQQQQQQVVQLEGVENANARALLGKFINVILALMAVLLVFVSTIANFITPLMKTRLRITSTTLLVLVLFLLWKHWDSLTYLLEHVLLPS
B5: Golgin-45 (Homo sapiens), Q9H2G9 (parent)
chain: MTTKNLETKVTVTSSPIRGAGDGMETEEPPKSVEVTSGVQSRKHHSLQSPWKKAVPSESPGVLQLGKMLTEKAMEVKAVRILVPKAAITHDIPNKNTKVKSLGHHKGEFLGQSEGVIEPNKELSEVKNVLEKLKNSERRLLQDKEGLSNQLRVQTEVNRELKKLLVASVGDDLQYHFERLAREKNQLILENEALGRNTAQLSEQLERMSIQCDVWRSKFLASRVMADELTNSRAALQRQNRDAHGAIQDLLSEREQFRQEMIATQKLLEELLVSLQWGREQTYSPSVQPHSTAELALTNHKLAKAVNSHLLGNVGINNQKKIPSTVEFCSTPAEKMAETVLRILDPVTCKESSPDNPFFESSPTTLLATKKNIGRFHPYTRYENITFNCCNHCRGELIAL
partner: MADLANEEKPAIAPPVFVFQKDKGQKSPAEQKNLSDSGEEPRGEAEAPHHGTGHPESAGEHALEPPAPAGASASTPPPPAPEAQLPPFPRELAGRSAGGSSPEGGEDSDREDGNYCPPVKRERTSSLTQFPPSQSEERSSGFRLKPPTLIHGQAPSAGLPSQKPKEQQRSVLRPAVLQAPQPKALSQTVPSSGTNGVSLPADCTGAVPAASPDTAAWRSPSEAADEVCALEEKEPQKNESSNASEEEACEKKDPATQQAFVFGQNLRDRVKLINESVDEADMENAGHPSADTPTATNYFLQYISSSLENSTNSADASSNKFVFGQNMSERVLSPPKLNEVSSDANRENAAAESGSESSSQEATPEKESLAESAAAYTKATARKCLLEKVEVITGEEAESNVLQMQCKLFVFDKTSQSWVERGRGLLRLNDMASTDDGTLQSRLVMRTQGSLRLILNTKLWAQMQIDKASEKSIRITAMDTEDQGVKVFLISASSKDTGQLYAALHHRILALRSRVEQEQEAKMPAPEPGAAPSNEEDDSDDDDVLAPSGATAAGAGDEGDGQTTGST
B6: Filamin-binding LIM protein 1 (Homo sapiens), Q8WUP2 (parent)
chain: MASKPEKRVASSVFITLAPPRRDVAVAEEVRQAVCEARRGRPWEAPAPMKTPEAGLAGRPSPWTTPGRAAATVPAAPMQLFNGGCPPPPPVLDGEDVLPDLDLLPPPPPPPPVLLPSEEEAPAPMGASLIADLEQLHLSPPPPPPQAPAEGPSVQPGPLRPMEEELPPPPAEPVEKGASTDICAFCHKTVSPRELAVEAMKRQYHAQCFTCRTCRRQLAGQSFYQKDGRPLCEPCYQDTLERCGKCGEVVRDHIIRALGQAFHPSCFTCVTCARCIGDESFALGSQNEVYCLDDFYRKFAPVCSICENPIIPRDGKDAFKIECMGRNFHENCYRCEDCRILLSVEPTDQGCYPLNNHLFCKPCHVKRSAAGCC
partner: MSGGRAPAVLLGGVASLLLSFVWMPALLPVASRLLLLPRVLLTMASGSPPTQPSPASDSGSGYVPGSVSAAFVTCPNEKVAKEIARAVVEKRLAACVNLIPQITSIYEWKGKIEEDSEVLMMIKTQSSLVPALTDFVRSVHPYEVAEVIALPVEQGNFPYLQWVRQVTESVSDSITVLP

In the first assay the parent is B1. Conditions: with tri54_human TRIM54, Q9BYV2.
In the case of V523F, the “effect of a mutation on the interaction” value is listed as “with no effect”. Still for that read-out and setting: then L210M, with “with no effect”; and R559G, with “with no effect”.

Variants of B2 are the subject of a further assay. Conditions: with FAM168A.
For the variant R146P, the “effect of a mutation on the interaction” value is “disrupting interaction strength”. Still for that read-out and setting: then V78I, with “with no effect”.

In the next assay the parent is B3. Conditions: with tri27_human TRIM27, P14373.
As for P11A, the “effect of a mutation on the interaction” value is “with no effect”.

In the next assay the parent is B4. Conditions: with tmcc2_human TMCC2, O75069.
Take R143W: the “effect of a mutation on the interaction” value was “with no effect”. Same read-out and setting: with E32A the entry was “with no effect”.

Variants of B5 are the subject of the next assay. Conditions: with ranb3_human RANBP3, Q9H6Z4.
Take Q40R: the “effect of a mutation on the interaction” value is on record as “with no effect”. Still for that read-out and setting: then H45R, with “with no effect”.

Another assay covers variants of B6. Conditions: with cuta_human CUTA.
For the variant Y204C, the “effect of a mutation on the interaction” value is recorded as “disrupting interaction strength”.
